{"source": "patent US5681715", "key": {"[1]": {"biological_target": "mature LipA produced in E. coli without signal peptide (pAHE19, pAHE22) (Pseudomonas cepacia DSM 3959) (UniProt P22088)"}, "[2]": {"biological_target": "LipA lipase of Pseudomonas cepacia DSM 3959 produced in E. coli from pAHE2 or pAHE10 (inclusion bodies) (Pseudomonas cepacia DSM 3959) (UniProt P22088)"}, "[3]": {"biological_target": "LipD, lipase from P. cepacia DSM 3401 (Pseudomonas cepacia DSM 3401)"}, "[4]": {"biological_target": "LipA-LipD hybrid lipase (pAHE16, pAHE23) (Pseudomonas cepacia DSM 3959; Pseudomonas cepacia DSM 3401) (UniProt P22088)"}, "[5]": {"biological_target": "LipD, lipase from P. cepacia DSM 3401 (Pseudomonas cepacia DSM 3401)", "remark": "listed apart in the source"}, "[6]": {"biological_target": "mature, extracellular lipase from P. cepacia DSM 3959 (Pseudomonas cepacia DSM 3959) (UniProt P22088)"}, "[7]": {"biological_target": "intracellular prelipase from P. cepacia DSM 3959 (Pseudomonas cepacia DSM 3959) (UniProt P22088)"}, "[8]": {"biological_target": "LipA lipase of Pseudomonas cepacia DSM 3959 produced in E. coli from pAHE2 or pAHE10 (inclusion bodies) (Pseudomonas cepacia DSM 3959) (UniProt P22088)", "remark": "listed apart in the source"}}}
{"substance": "LimA, Pseudomonas cepacia lipase modulator (chaperone molecule) from P. cepacia DSM 3959 (from UniProt P22089)", "values": [{"measurement": "LU after renaturation", "setting": "[1]", "value": 0.75, "unit": "LU"}, {"measurement": "No of lipase units recovered after denaturation and renaturation, inclusion bodies diluted 1:10", "setting": "[2]", "value": 7.8, "unit": "LU"}, {"measurement": "No of LU recovered (+UREA) and % recovery after denaturation and renaturation, first preparation", "setting": "[3]", "value": 0.45, "unit": "LU"}, {"measurement": "LU after renaturation", "setting": "[4]", "value": 1, "unit": "LU"}, {"measurement": "LU after renaturation and % recovery, new preparation", "setting": "[5]", "value": 56, "unit": "LU"}, {"measurement": "LU after renaturation", "setting": "[6]", "value": 1.3, "unit": "LU"}, {"measurement": "LU after renaturation", "setting": "[7]", "value": 0, "unit": "LU"}, {"measurement": "No of LU recovered after denaturation and renaturation (pH stat), inclusion bodies undiluted", "setting": "[8]", "value": 16, "unit": "LU"}]}
